One series has as its system LS411N tumors. As to the kind of experiment: Tumor growth inhibition, subcutaneous LS411N colorectal tumors in nude mice. The class given is in vivo. Conditions: for growth inhibition: single agent, 0.1 mg/kg; for tumor growth inhibition: 2 cycles. As to the method: (§1) 6-8 week old Hsd:Athymic Nude-Foxn1^nu mice (hereby referred to as nude mice) were injected subcutaneously with LS411N (5×10^6 cells), SW403 (5×10^6 cells), Ls174t (5×10^6 cells) or Hep3B (5×10^6 cells+matrigel) under the right shoulder. Tumor volume was measured twice a week to monitor tumor growth/suppression. Dosing was initiated when the tumors reached 200-250 mm^3. For tumor growth inhibition studies, animals were randomized and assigned to different cohorts and subjected to dosing cycles. BCAT1 or LNP was given intravenously via lateral tail vein at a total volume of 10 ml/kg. Trametinib was given orally at a volume of 10 mi/kg.
(§2) Human cell lines LS411N and SW403, Ls174t and Hep3B were obtained from ATCC (Manassas, Va.) and grown in RPMI/DMEM medium supplemented with 10% FBS. LS411N is a human colorectal cell line harboring mutations in the adenomatous polyposis coli (APC) and BRAF genes. APC is a component of the destruction complex in the Wnt signaling pathway. SW403 is a human colorectal cell line harboring mutations in the APC and KRAS genes. LS174t is a human colorectal cell line harboring mutations in the CTNNB1 and KRAS genes.
The single agent efficacy of BCAT1 was evaluated at different dose levels in different colorectal cancer models. […] FIG. 2A. […] FIG. 2C. […] Without intending to be bound by any theory, it appears that the Wnt pathway may be reactivated when treatment is stopped.
We then evaluated the single agent Trametinib in LS411N tumor bearing mice at different dose levels (3, 1 and 0.3 mg/kg) and selected […] as the dose to be used in the combination study. FIG. 5A. For BCAT1, a dose of 0.1 mg/kg was selected from the previous single agent efficacy studies to be used in combination with Trametinib to treat LS411N tumors. […] FIG. 5B.

For another series, the system named is SW403 tumors. As to the kind of experiment: Tumor growth inhibition, subcutaneous SW403 colorectal tumors in nude mice. The class given is in vivo. Conditions: for tumor growth inhibition: each agent alone, 0.3 mg/kg. As to the method: as §1, §2
The combination treatment was also evaluated in a third CRC model (SW403) that has APC and KRAS mutations. As described for the other two models, we first checked the single agent Trametinib efficacy at different dose levels in these tumors and picked 0.3 mg/kg as the optimal dose for the combination study (FIG. 5C). BCAT1 was administered at the same dose (0.3 mg/kg) and used in combination with Trametinib.
In these CRC models, tumors generally develop resistance to Trametinib over time. To investigate this resistance, SW403 tumors were continuously treated with Trametinib at 3 mg/kg doses (qdx3, 3 mg/kg×3) until the tumors stopped responding to the treatment. Once the tumors stopped responding and became resistant to Trametinib treatment, we treated the tumors with a combination of BCAT1 and Trametinib (qdx3, 3mpk+ qdx3, 3mpk) (around Day 42). […]

The test system of a further series is Ls174t liver metastases. As to the kind of experiment: Survival in Ls174t CRC liver metastases model. As to conditions: for mice that died around day 48: 2 mg/kg or 2+2 mg/kg, start 3 weeks after implantation; for median survival: single agent 2 mg/kg, start 3 weeks after implantation of 2×10^6 cells. The class given is in vivo, nude mice. As to the method: (§3) Colorectal cancer (CRC) liver metastases models were generated by surgically implanting 1-2×10^6 cells in the spleen of nude mice after midline abdominal incision. After surgery, the abdominal incision was closed with 5-0 to 6-0 absorbable, nonbraided suture and the skin was closed with a single wound clip. Mice were anesthetized with isoflurane before initiating the surgery and during surgery. Buprenorphine was given preoperatively and post-operatively at 0.1 mg/kg subcutaneously for pain relief. Mice were held in a pathogen-free environment and all procedures involving animals were performed according to protocols approved by Dicerna Pharmaceuticals' Institutional Animal Care and Use Committee (Dicerna-IACUC).
We developed multiple CRC liver metastatic models by surgically implanting Ls174t and LS411N cells in spleen.
Before we evaluated the combination strategies in these CRC metastatic models, we ran a single agent Trametinib efficacy in the Ls174t liver metastatic model. Fewer number of Ls174t cells (1×10^6 cells) were implanted in the spleen this model to reduce the aggressiveness of the tumor progression. 18 days after the implantation, mice were randomly distributed into 3 groups and treated with PBS, Trametinib at 1 mg/kg or Trametinib at 3 mg/kg dose levels (qdx3, 3 cycles).
Next we ran a combination efficacy study in mice bearing Ls714t liver metastasis based on the doses used in the single agent efficacy studies. This time, the treatment was initiated 3 weeks after tumor implantation of 2×10^6 Ls174t cells. BCAT1, Placebo, and Trametinib were dosed at 2 mg/kg and the combination groups (Placebo+Trametinib or BCAT1+Trametinib) were dosed at 2+2 mg/kg.

The next series deals with Hep3B tumors. As to the kind of experiment: Tumor growth inhibition, mouse model bearing Hep3B tumors. Conditions: administered individually at 2 mg/kg. The class given is in vivo. As to the method:
as §1
Combination therapy with BCAT1 and a nucleic acid inhibitor molecule that targets the c-Myc gene (“MYC1”) was also evaluated. MYC1 has a 25 base pair passenger strand and a 27 base pair guide strand that form a duplex region consisting of 25 base pairs, where the 3′ end of the passenger strand and 5′ end of the guide strand form a blunt end, and the 3′ end of the guide strand consists of a single-stranded, two-base overhang. FIG. 9. The MYC1 construct was formulated in EnCore LNP.

Series [1] relates to multiple tumor types (xenograft, PDX, GEM tumors). As to the kind of experiment: Delivery of LNP formulated BCAT1 nucleic acid payload to tumors in mouse models. The class given is in vivo. From the text: The BCAT1 construct was formulated in EnCore lipid nanoparticles (LNP).
The subject of a further series is LS174t tumors. As to the kind of experiment: Tumor growth inhibition, subcutaneous Ls174t colorectal tumors in nude mice. In kind it is in vivo. Conditions: qdx3, 3 mg/kg, 2 cycles. As to the method:
as §1, §2
Combination therapy with BCAT1 and an MEK inhibitor (trametinib) was evaluated. Trametinib (99% purity) was dissolved in DMSO to make a clear solution of 5 mg/ml. […]

The subject of another series is RKO tumors. As to the kind of experiment: Tumor growth inhibition, β-catenin/APC wild type RKO colorectal tumors. The class given is in vivo. As to conditions: qdx3, 3 mg/kg, 2 cycles.
The subject of another series is LS411N liver metastases. The experiment in a line: Survival in LS411N CRC liver metastases model. The class given is in vivo, nude mice. Conditions: qdx3, 3 mg/kg, 3 weeks. As to the method:
as §3
We developed multiple CRC liver metastatic models by surgically implanting Ls174t and LS411N cells in spleen. 2-5 weeks after implanting 2×10^6 cells, the primary Ls174t tumors grown in the spleen spontaneously metastasized to the liver. To see if BCAT1 monotherapy will treat both primary and metastatic tumors and improve survival, 2 weeks after the tumor implantation, mice bearing Ls174t tumors were treated with BCAT1 or placebo at 3 mg/kg doses (qdx3, 3 mg/kg, 3 cycles). […] The […] survival time (“MST”) of the control-treated group is 31 days, whereas the MST of the BCAT1-treated group is 46 days).
Similarly, the mice with LS411N liver metastases were also treated with BCAT1 or controls (placebo or PBS) at the same dose levels for 3 weeks. Unlike the Ls174t tumors, LS411N tumors took a much longer time to metastasize to the liver after implanting 2×10^6 cells in the spleen. The treatment was initiated 18 days after the implantation of LS411N cells in the spleen. It took 112 days for all the control treated mice to die. […] It took about 6 months for all of the BCAT1-treated mice to die. In summary, BCAT treatment extended the survival of mice bearing LS411N liver metastasis by up to two-fold compared to the control treatment groups (MST of PBS/Placebo treatment groups is 99-102 days, whereas the MST of the BCAT1-treated group is 181 days).

Setting [2] is: start 18 days after implantation.

Regarding `CC(=O)Nc1cccc(-n2c(=O)n(C3CC3)c(=O)c3c(Nc4ccc(I)cc4F)n(C)c(=O)c(C)c32)c1` [Trametinib, trametinib], the growth inhibition entry in the series with LS411N tumors was “about 20%”. Further, the tumor growth inhibition with SW403 tumors turned out to be 40%. Besides, the “mean survival time (MST)” value with Ls174t liver metastases (1 mg/kg, qdx3, 3 cycles, 1×10^6 cells, start 18 days after implantation) came out at 47 days; in the series on Ls174t liver metastases (3 mg/kg, qdx3, 3 cycles, 1×10^6 cells, start 18 days after implantation), 65 days. In the series on Ls174t liver metastases, the “mice that died around day 48” value was found to be 90%. In addition, the median survival in the series on Ls174t liver metastases (qdx3, 3 cycles) was 44 days.

“MYC1: nucleic acid inhibitor molecule targeting the c-Myc gene; sense strand SEQ ID NO:5, antisense strand SEQ ID NO:6 (sense AGCUUUUUUGCCCUGCGUGACCAGA; antisense UCUGGUCACGCAGGGCAAAAAAGCUCC; listed as RNA, chemistry not given here)”: the growth inhibition in the series on Hep3B tumors is reported as 40%.

B1: BCAT1: nucleic acid inhibitor molecule targeting the β-catenin gene; sense strand SEQ ID NO:1, antisense strand SEQ ID NO:2 (nucleic acid)
sense: AGAAUACAAAUGAUGUAGAAACAGCC
antisense: UAGCUAUCGTGGCUGUUUCUACAUCAUUUGUAUUCUGC
modifications: chemistry not given here
For the molecule B1, in series [1] (HCT116, DLD1, HL60), the “delivery of BCAT1 to tumors” value is reported as “Negative: HCT116, DLD1, HL60”. Further, the “delivery of the nucleic acid payload to tumors” value in series [1] (LNP formulated, tumor types of Table I (subcutaneous, orthotopic, disseminated, metastatic xenografts, PDX, GEM)) is reported as “effectively delivered”. The “tumor growth after therapy discontinued” value in the series with LS411N tumors (qdX3, 3 mg/kg, discontinued after the second cycle) is recorded as “tumor growth resumed to a level roughly comparable to untreated subjects”. Besides, the tumor growth inhibition was 47% in the series with LS411N tumors (qdx3, 0.3 mg/kg); 60% in the series on LS411N tumors (qwx1, 3 mg/kg, weekly dosing); 20% in the series with SW403 tumors. The “tumor growth inhibition relative to vehicle-treated animals” value in the series on LS411N tumors (qdx3, 1 mg/kg, two weekly dosing cycles, i.v.) is 82%. The growth inhibition result is “about 20%” with LS411N tumors and 47% in the series with Hep3B tumors. For the same molecule, the anti-tumor efficacy entry in the series with SW403 tumors (qdx3, 3 mg/kg, 2 cycles) is recorded as “Robust efficacy”; in the series with LS174t tumors, “Robust efficacy”; in the series with RKO tumors it was “No efficacy”. Moreover, in the series on Ls174t liver metastases, the “mice that died around day 48” value was 90%. The “mean survival time (MST)” value with Ls174t liver metastases (qdx3, 3 mg/kg, 3 cycles, start 2 weeks after implantation of 2×10^6 cells) is given as 46 days; in the series on LS411N liver metastases (setting [2]) it was 181 days. The median survival in the series on Ls174t liver metastases (qdx3, 3 cycles) is on record as 45 days. Further, the “extension of survival compared to control treatment groups” value in the series on LS411N liver metastases is on record as “up to two-fold”. Besides, the “time for all treated mice to die” value in the series with LS411N liver metastases is “about 6 months”. Besides, the “mice surviving at 112 days post-implant” value with LS411N liver metastases (setting [2]) worked out at 75%.

These data come from patent publication US11504374B2, “Compositions and methods for the treatment of a beta-catenin-associated disease or disorder” (Dicerna Pharmaceuticals, Inc., priority 2016, dated 2022).
